The source of these data is PMC10725492 (2023).

This experiment concerns the target recombinant APP N-terminal (18-612) fragment (UniProt P05067-4 18-612). In words: SPR.

No end group written: not given here. *: point of attachment. Palmitoyl = CCCCCCCCCCCCCCCC(=O)*

recombinant APP N-terminal (18-612) fragment, sequence (P05067 other isoform, or with tags, fused parts or gaps): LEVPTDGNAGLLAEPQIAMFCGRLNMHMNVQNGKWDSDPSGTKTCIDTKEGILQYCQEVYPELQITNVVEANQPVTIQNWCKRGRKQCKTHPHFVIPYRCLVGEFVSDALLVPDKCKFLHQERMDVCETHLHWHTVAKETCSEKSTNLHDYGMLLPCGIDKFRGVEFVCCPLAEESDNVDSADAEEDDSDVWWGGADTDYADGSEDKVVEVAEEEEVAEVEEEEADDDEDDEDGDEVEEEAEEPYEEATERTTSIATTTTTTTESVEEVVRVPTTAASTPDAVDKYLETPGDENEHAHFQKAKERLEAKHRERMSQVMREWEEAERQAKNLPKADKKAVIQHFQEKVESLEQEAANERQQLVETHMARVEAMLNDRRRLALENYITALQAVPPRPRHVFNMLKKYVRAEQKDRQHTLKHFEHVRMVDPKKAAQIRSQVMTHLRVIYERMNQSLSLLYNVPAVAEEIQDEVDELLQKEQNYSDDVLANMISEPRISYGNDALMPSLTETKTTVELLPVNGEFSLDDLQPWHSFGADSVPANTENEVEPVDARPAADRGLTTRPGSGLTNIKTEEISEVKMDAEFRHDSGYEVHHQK

B1: AY51 peptide (peptide)
chain: KKKKKKLKVRLASHLRK(Palmitoyl)ELRKRLLRDA
As for B1, the off-rate (koff) stood at 0.000356 s⁻¹.
